The source of these data is PMC2607196.

The stoichiometry N is the number of molecules, sites or subunits per partner or assembly.

The target in the experiment is CNTF-Rα/CNTF binary complex (human) (UniProt P26441). The experiment is described as follows: SEC. For orientation: Size exclusion chromatography separates by hydrodynamic size, large species first.

Substance “gp130 (D2-D3) (from UniProt P40189 23-918) (domain or fragment)” came in with a stoichiometry N of 1.

Take gp130 (D1-D3) (domain or fragment): the stoichiometry N is 1.
